Test results reported in publication PMC7807878, “Development of an engineered peptide antagonist against periostin to overcome doxorubicin resistance in breast cancer” (BMC Cancer, 2021).

Legend:
Assay type in all cases: cell-based
[1] = system: MCF-7 cells; assay: Proliferation assay (MTS), MCF-7; conditions: rPN 100 ng/ml, 72 h, not statistically significant
Description: (§1) The proliferation assay of BCA cells was determined by the cell viability assay using CellTiter 96® Aqueous One Solution Cell Proliferation Assay (MTS assay) (Promega, Madison, WI, USA). Briefly, 3 × 10^3 cells in 100 μl medium were seeded in 96-well plates for 24 h. The day 1 baseline determination used the MTS assay following company instructions. For the experiment, cells were placed into new media containing 2% FBS with or without rPN (100 ng/ml) and anti-PN peptide (1 μM) and cells were cultured for a further 72 h. After treatment, cell viability was measured by the MTS assay. Proliferation rate was calculated as the folding of cell numbers increased from the baseline.

[2] = system: survivin expression in BCA cells; assay: Western blot, survivin expression; conditions: parental BCA cells (MDA-MB-231, MCF-7), PN alone, duplicate experiments
Description: (§2) To determine the secreted PN amount in conditioned-media of each cell, 3 × 10^5 cells were seeded into 6-well plates with 3 ml of complete media. Cell media were removed the next day and washed with phosphate-buffered saline (PBS), and serum free media was added. Media was collected at 24 h, centrifuged and supernatant was taken and concentrated by Vivaspin®6 (VS0691, Sartorius, Goettingen, Germany). Protein concentration was determined by Bradford reagent (#5000006, Bio-Rad Laboratories, Hercules, CA, USA) and the amounts were adjusted to 5 μg per loading. To determine protein expression or phosphorylation in the cellular part, 2 × 10^6 cells were lysed with RIPA buffer (sc-24,948, Santa Cruz Biotechnology, Inc., Dallas, TX, USA). Each sample was separated by sodium dodecyl sulfate (SDS) polyacrylamide gel electrophoresis (PAGE) and transferred to PVDF membrane. […] HRP was detected by Pierce™ enhanced chemiluminescence (ECL) reagent (Thermo Fisher Scientific) and chemiluminescence signal was detected by G:BOX gel documentation system (Syngene, Cambridge, UK). Expression level of PN was determined by ImageJ version 1.52a software (National Institutes of Health, Bethesda, MD, USA).
(§3) Parental BCA cells were treated with PN and anti-PN peptides and the intracellular signaling pathway determined by western blot analysis. Akt phosphorylation and expression of survivin were detected. […]

[3] = system: MDA-MB-231 cells; assay: Wound healing migration assay, MDA-MB-231; conditions: rPN 100 ng/ml vs untreated control; P-value = 0.033
Description: (§4) The wound healing assay was performed to determine migration activity of the BCA cells after treatment under various conditions. Briefly, 5 × 10^4 cells of parental BCA cells or mock/PN-transfected cells were seeded in 24-well culture plates with their regular media for 24 h and media changed to 1% FBS with or without rPN (100 ng/ml) and anti-PN peptide (1 μM) and culture continued for 1 day until they reached approximately 95% confluency. Wounds were applied by scratching using 200 μl micropipette tip in a single straight line. The media with floating cells would be removed and refilled with the new experimental media. The culture process would be continued for a further 24 h and photos of the area would be taken at 8 h intervals. The migration area would be analyzed from the photos taken using TScratch version 1.0 software (https://github.com/cselab/TScratch) and migration activity calculated as μm^2/h. Independent duplicated experiments were performed.

[4] = system: MCF-7 cells; assay: Wound healing migration assay, MCF-7; conditions: rPN 100 ng/ml vs untreated control; P-value = 0.030
Description: as §4

[5] = system: Akt phosphorylation (pAKT) in BCA cells; assay: Western blot, Akt phosphorylation; conditions: parental BCA cells (MDA-MB-231, MCF-7), PN alone, duplicate experiments
Description: as §2, §3

[6] = system: MDA-MB-231 cells; assay: Proliferation assay (MTS), MDA-MB-231; conditions: rPN 100 ng/ml, 72 h, P-value = 0.004
Description: as §1

[7] = system: MCF-7 cells; assay: Drug sensitivity (MTS), MCF-7; conditions: doxorubicin treated MCF-7, rPN treatment experiment
Description: (§5) Determination the IC50 of BCA cells in response to chemotherapeutic drugs was analyzed by MTS assay. The experiment started from 5 × 10^3 of BCA cells in 100 μl medium that were seeded in 96-well plates for 24 h, then media was changed with different concentrations of new chemotherapeutic drugs [doxorubicin (S1208), paclitaxel (S1150), cisplatin (S1166), 5-fluorouracil (5-FU) (S1209) and gemcitabine (S1714) that were purchased from Selleck Chemicals, Houston, TX, USA] with or without rPN and anti-PN peptide for a further 48 h. After that, cell viability was determined by the MTS assay. Combination index (CI) was calculated by IC50 of combination of drug and PN or anti-PN peptide divided by IC50 of chemotherapeutic drug alone.
(§6) ANOVA test or Student’s t-test were applied for statistical analysis of the experiments. GraphPad Prism® version 7.04 software (GraphPad Software, San Diego, CA, USA) was used in calculation of IC50 values of chemotherapeutic drugs and PASW Statistics software version 18 (SPSS, IBM, Armonk, NY, USA) was used for other analysis. Dose-responses were compared by Holm-Sidak’s multiple comparison test. Mann-Whitney ranked-sum test was used for comparisons between normal and patient serum PN. Chi-square or Fisher’s exact test were used to determine the correlation between PN expression and clinical data in BCA patients. […]

[8] = system: MDA-MB-231 cells; assay: Drug sensitivity (MTS), MDA-MB-231; conditions: doxorubicin treated MDA-MB-231, rPN treatment experiment
Description: as §5, §6

B1: rPN: recombinant PN (periostin), BioVendor (protein)
chain: NNHYDKILAHSRIRGRDQGPNVCALQQILGTKKKYFSTCKNWYKKSICGQKTTVLYECCPGYMRMEGMKGCPAVLPIDHVYGTLGIVGATTTQRYSDASKLREEIEGKGSFTYFAPSNEAWDNLDSDIRRGLESNVNVELLNALHSHMINKRMLTKDLKNGMIIPSMYNNLGLFINHYPNGVVTVNCARIIHGNQIATNGVVHVIDRVLTQIGTSIQDFIEAEDDLSSFRAAAITSDILEALGRDGHFTLFAPTNEAFEKLPRGVLERIMGDKVASEALMKYHILNTLQCSESIMGGAVFETLEGNTIEIGCDGDSITVNGIKMVNKKDIVTNNGVIHLIDQVLIPDSAKQVIELAGKQQTTFTDLVAQLGLASALRPDGEYTLLAPVNNAFSDDTLSMDQRLLKLILQNHILKVKVGLNELYNGQILETIGGKQLRVFVYRTAVCIENSCMEKGSKQGRNGAIHIFREIIKPAEKSLHEKLKQDKRFSTFLSLLEAADLKELLTQPGDWTLFVPTNDAFKGMTSEEKEILIRDKNALQNIILYHLTPGVFIGKGFEPGVTNILKTTQGSKIFLKEVNDTLLVNELKSKESDIMTTNGVIHVVDKLLYPADTPVGNDQLLEILNKLIKYIQIKFVRGSTFKEIPVTVYTTKIITKVVEPKIKVIEGSLQPIIKTEGPTLTKVKIEGEPEFRLIKEGETITEVIHGEPIIKKYTKIIDGVPVEITEKETREERIITGPEIKYTRISTGGGETEETLKKLLQEEVTKVTKFIEGGDGHLFEDEEIKRLLQGDTPVRKLQANKKVQGSRRRLREGRSQ
Effect of rPN on proliferation [1]: could increase cell numbers
Effect of PN on survivin expression [2]: could increase phosphorylation of Akt and survivin expression in all BCA cells
Effect of rPN on migration rate [3]: had a higher migration rate than the untreated control with statistical significance
Effect of rPN on migration rate [4]: had a higher migration rate than the untreated control with statistical significance
Effect of PN on Akt phosphorylation [5]: could increase phosphorylation of Akt
Effect of rPN on proliferation [6]: significantly showed induction of cell proliferation
Combination index (CI) of PN [7]: 1.39
Combination index (CI) of PN [8]: 2.36
